# Patent publication US10202593B2, “Evolved sortases and uses thereof” (President and Fellows of Harvard College, priority 2013, dated 2019)
# Like-named read-outs stand apart in the source and are kept apart here.
# Tests used:
# Format in all cases: biochemical
# [1] = test system: LAETG (Abz-LAETGK(Dnp)-CONH2); test: In vitro sortase kinetics HPLC assay, LAETG substrate
# Method: See below for details on sortase expression and purification, and on the synthesis of Abz-LPETGK(Dnp)-CONH2 (SEQ ID NO: 19). […] Reactions were initiated with the addition of enzyme and incubated at 22.5° C. for 3 to 20 minutes before quenching with 0.5 volumes of 1 M HCl. Five to ten nmol of peptide from the quenched reactions were injected onto an analytical reverse-phase Eclipse XDB-C18 HPLC column (4.6×150 mm, 5 μm, Agilent Technologies) and chromatographed using a gradient of 10 to 65% acetonitrile with 0.1% TFA in 0.1% aqueous TFA over 13 minutes. Retention times under these conditions for the Abz-LPETGK(Dnp)-CONH2 (SEQ ID NO: 19) substrate, the released GKDnp peptide, and the Abz-LPETGGG-COOH (SEQ ID NO: 20) product were 12.8, 10.4, and 9.1 min, respectively. To calculate the percent conversion, the ratio of the integrated areas of the Abz-LPETGGG-COOH (SEQ ID NO: 20) and Abz-LPETGK(Dnp)-CONH2 (SEQ ID NO: 19) peptide Abs220 peaks was compared to a standard curve generated by mixing the product and starting peptide in known ratios. To determine […] and Km, reaction rates were fit to the Michaelis-Menten equation using OriginPro 7.0 software. All kinetics values reported represent the average of at least three measurements. Percent conversion was also calculated by using the ratio of the integrated areas of the GK(Dnp)-CONH2 and Abz-LPETGK(Dnp)-CONH2 peptide Abs355 peaks were compared directly (Example 5). To determine kcat and Km, LPETG, reaction rates were fit to the Michaelis-Menten equation using Microsoft Excel using the Solver add-in. To determine Km,GGG and KH, reaction rates were fit to the modified Michaelis-Menten, for which KH is as defined when KH<<Km,GGG.
# Assays to determine eSrtA, eSrtA(2A-9) and eSrtA(4S-9) specificity were performed by preparing 10 μM stocks of Abz-LXEXGK(Dnp) (SEQ ID NO: 75) peptides in 300 mM Tris pH 7.5, 150 mM NaCl, 5 mM CaCl2, 5% v/v DMSO, and 100 mM Gly-Gly-Gly-COOH (GGG). Reactions were performed by adding eSrtA(2A-9) to a final concentration of 450 nM, eSrtA(4S-9) to a final concentration of 115 nM or eSrtA to a final concentration of 47.5 nM and a final volume of 100 μL, then incubating at 22.5° C. for 15 minutes. Reactions were quenched by the addition of 0.2 volumes of 5 M HCl, then were injected onto an analytical reverse-phase Eclipse XDB-C18 HPLC column (4.6×150 mm, 5 μm, Agilent Technologies) and chromatographed using a gradient of 10 to 65% acetonitrile with 0.1% TFA in 0.1% aqueous TFA over 13 minutes. Retention times under these conditions for the Abz-LPETGK(Dnp)-CONH2 (SEQ ID NO: 19) substrate, the released GKDnp peptide, and the Abz-LPETGGG-COOH (SEQ ID NO: 20) product were 12.8, 10.4, and 9.1 min, respectively, while the remaining Abz-LXEXGK(Dnp)-CONH2 (SEQ ID NO: 74) substrates varied in retention time between 9 and 13 minutes. To calculate the percent conversion, the ratio of the integrated areas of the GK(Dnp)-CONH2 and Abz-LPETGK(Dnp)-CONH2 (SEQ ID NO: 19) peptide Abs355 peaks were compared directly. Subsequent determination of kcat/Km and KH were performed as described for in vitro SrtA characterization.
# In each case, rate constants were determined by measuring enzyme velocity at eight different substrate concentrations by HPLC assay, then fit using nonlinear regression to the Michaelis-Menten equation, yielding kcat and Km. KH was calculated by measuring enzyme velocity at 1 mM target substrate and eight different GGG concentrations by HPLC assay, then fitting the resulting curves using nonlinear regression to the modified Michaelis-Menten equation.
# [2] = test system: LPETG (Abz-LPETGK(Dnp)-CONH2); test: In vitro sortase kinetics HPLC assay, LPETG substrate
# How it was run: (§1)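 Abz-LXEXGK(Dnp) peptides in 300 mM Tris pH 7.5, 150 mM NaCl, 5 mM CaCl2, 5% DMSO, GGG; 22.5° C., acid-quenched, converted fraction by reverse-phase HPLC peak areas. kcat and Km from eight substrate concentrations fit to Michaelis-Menten; KH at 1 mM substrate over eight GGG levels.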
# [3] = test system: LPESG (Abz-LPESGK(Dnp)-CONH2); test: In vitro sortase kinetics HPLC assay, LPESG substrate
# How it was run: as §1
molecule,measurement,setting,value
eSrtA (protein) QAKPQIPKDKSKVAGYIEIPDADIKEPVYPGPATREQLNRGVSFAEENESLDDQNISIAGHTFIDRPNYQFTNLKAAKKGSMVYFKVGNETRKYKMTSIRNVKPTAVEVLDEQKGKDKQLTLITCDDYNEETGVWETRKIFVATEVK,KH,[1]; 1 mM LAETG,26.5 ± 0.6 µM
same,KN,"[1]; 1 mM LAETG, eight GGG concentrations",26.5 ± 0.6 µM
same,Km,"[1]; 1 mM LAETG, read-out: Km,GGG",0.807 ± 0.056 mM
same,Kcat (Hz),"[1]; Sub LAETG, 100 mM GGG",1.31 ± 0.26 Hz
same,Km,"[1]; Sub LAETG, 100 mM GGG, read-out: Km",6.07 ± 0.87 mM
same,Rel. Activity,"[1]; Sub LAETG, kcat/Km of the enzyme's preferred substrate relative to kcat/Km on this substrate",103.3
same,Kcat (Hz),"[1]; Table 2, Sub LAETG",1.31 ± 0.26 Hz
same,Km,"[1]; Table 2, Sub LAETG, read-out: Km",6.07 ± 0.87 mM
same,preference for LPETG over LAETG,[1]; ratio of kcat/KM,103 fold
same,"specificity (relative cat. Efficiency, fold)","[1]; ratio of kcat/Km between 2A (LAETG) and wt (LPETG) substrates, favoured over disfavoured",122.6 fold
same,"kcat, 10 mM GGG (Hz)","[1]; substrate 2A (LAETG), 10 mM GGG",1.316 Hz
same,Km,"[1]; substrate 2A (LAETG), read-out: Km, LxExG",6.16 mM
same,KH,[2]; 1 mM LPETG,32.8 ± 2.4 µM
same,KN,"[2]; 1 mM LPETG, eight GGG concentrations",32.8 ± 2.4 µM
same,Km,"[2]; 1 mM LPETG, read-out: Km,GGG",1617 ± 13 µM
same,Khydrolysis,[2]; 1 mM wt (LPETG) substrate,22.59 µM
same,"kcat, 1 mM LxExG (Hz)","[2]; 1 mM wt (LPETG) substrate, GGG varied",7.245 Hz
same,Km,"[2]; 1 mM wt (LPETG) substrate, read-out: Km, GGG",2990 µM
same,"KH,LPETG",[2]; LPETG substrate,32.8 ± 2.4 µM
same,Kcat (Hz),"[2]; Sub LPETG, 100 mM GGG",5.4 ± 0.4 Hz
same,Km,"[2]; Sub LPETG, 100 mM GGG, read-out: Km",230 ± 20 µM
same,Rel. Activity,"[2]; Sub LPETG, kcat/Km of the enzyme's preferred substrate relative to kcat/Km on this substrate",1
same,Kcat (Hz),"[2]; Table 2, Sub LPETG",5.4 ± 0.4 Hz
same,Km,"[2]; Table 2, Sub LPETG, read-out: Km",230 ± 20 µM
same,kL/KL/KH,[2]; substrate wt (LPETG),1.20E+09
same,kHydrolysis (Hz),"[2]; substrate wt (LPETG), 1 mM, GGG varied",0.05546 Hz
same,"kcat, 10 mM GGG (Hz)","[2]; substrate wt (LPETG), 10 mM GGG",5.622 Hz
same,Km,"[2]; substrate wt (LPETG), read-out: Km, LxExG",208 µM
same,KH,[3]; 1 mM LPESG,76 ± 19 µM
same,KN,"[3]; 1 mM LPESG, eight GGG concentrations",76 ± 19 µM
same,Km,"[3]; 1 mM LPESG, read-out: Km,GGG",22000 ± 900 µM
same,Kcat (Hz),"[3]; Sub LPESG, 100 mM GGG",1.46 ± 0.13 Hz
same,Km,"[3]; Sub LPESG, 100 mM GGG, read-out: Km",318 ± 58 µM
same,Rel. Activity,"[3]; Sub LPESG, kcat/Km of the enzyme's preferred substrate relative to kcat/Km on this substrate",4.9
same,Kcat (Hz),"[3]; Table 2, Sub LPESG",1.46 ± 0.13 Hz
same,Km,"[3]; Table 2, Sub LPESG, read-out: Km",318 ± 58 µM
same,"kcat, 10 mM GGG (Hz)","[3]; substrate 4S (LPESG), 10 mM GGG",1.74 Hz
same,Km,"[3]; substrate 4S (LPESG), read-out: Km, LxExG",672 µM
